Data taken from patent publication US11932908B2, “Compositions and methods for diagnosis and treatment of epilepsy” (THE REGENTS OF THE UNIVERSITY OF CALIFORNIA, priority 2004, dated 2024).
Changes are numbered by the printed parent chain. Names may count otherwise. “Also recorded” adds a separate entry of the source. Like-named read-outs stand apart in the source and are kept apart here.

B1: D210N: EFHC1 protein with JME missense mutation D210N (Asp210Asn) (protein)
chain: MVSNPVHGLPFLPGTSFKDSTKTAFHRSQTLSYRNGYAIVRRPTVGIGGDRLQFNQLSQAELDELASKAPVLTYGQPKQAPPADFIPAHVAFDKKVLKFDAYFQEDVPMSTEEQYRIRQVNIYYYLEDDSMSVIEPVVENSGILQGKLIKRQRLAKNDRGDHYHWKDLNRGINITIYGKTFRVVDCDQFTQVFLESQGIELNPPEKMALNPYTELRKQPLRKYVTPSDFDQLKQFLTFDKQVLRFYAIWDDTDSMYGECRTYIIHYYLMDDTVEIREVHERNDGRDPFPLLMNRQRVPKVLVENAKNFPQCVLEISDQEVLEWYTAKDFIVGKSLTILGRTFFIYDCDPFTRRYYKEKFGITDLPRIDVSKREPPPVKQELPPYNGFGLVEDSAQNCFTLIPKAPKKDVIKMLVNDNKVLRYLAVLESPIPEDKDRRFVFSYFLATDMISIFEPPVRNSGIIGGKYLGRTKVVKPYSTVDNPVYYGPSDFFIGAVIEVFGHRFIILDTDEYVLKYMESNAAQYSPEALASIQNHVRKREAPAPEAESKQTEKDPGVQELEALIDTIQKQLKDHSCKDNIREAFQIYDKEASGYVDRDMFFKICESLNVPVDDSLVKELIRMCSHGEGKINYYNFVRAFSN
B2: R221H: EFHC1 protein with JME missense mutation R221H (Arg221His) (protein)
chain: B1 chain with N210D, R221H
B3: D253Y: EFHC1 protein with JME missense mutation D253Y (Asp253Tyr) (protein)
chain: B1 chain with N210D, D253Y
B4: F229L: EFHC1 protein with JME missense mutation F229L (Phe229Leu) (protein)
chain: B1 chain with N210D, F229L

Key:
[1] = system: JME seizures; conditions: JME patients, cited from earlier work
[2] = system: L-type HVDCC; conditions: 10 μmol/L; cited from earlier work
[3] = cited from earlier work
[4] = system: T type VDCC; conditions: cited from earlier work
[5] = system: high voltage activated calcium currents (HVDCC); conditions: specific type not defined; cited from earlier work
[6] = system: EFHC1-transfected hippocampal primary culture neurons; test: Cell death analyses with VDCCs inhibitors; type: cell-based, mouse
Method: Cell death analyses with VDCCs inhibitors. Dissociated hippocampal primary culture neurons from embryonic day 16 mice were seeded in 24 well plates containing poly-L-lysine coated coverslips (5×10^4 cells/well). Neurons were transfected with pEGFP-EFHC1 on day 6 in vitro with antagonists and fixed 48 hours post transfection. Calcium channel inhibitors, ω-Agatoxin IVA (PEPTIDE […], INC.) for P-type (Cav2.1), ω-Conotoxin GVIA (PEPTIDE […], INC.) for N-type (Cav2.2), SNX-482 (PEPTIDE […], INC.) for R-type (Cav2.3), flunarizine (Nacalai Tesque) for T-type and nifedipine (SIGMA) for L-type VDCC, were added directly to neuronal culture 3 hrs post transfection.

[7] = target: T1, PQ type VDCC (Cav2.1) (Oryctolagus cuniculus, UniProt P27884); test: Patch-clamp analyses of HEK cell line with P/Q type VDCCs and wild type EFHC1 or mutant constructs; type: cell-based; conditions: for Activation V0.5 (mV): half-maximal voltage of activation; for Activation V0.5 (mV) / Inactivation V0.5 (mV) / Activation k (mV) / Inactivation K (mV): mean ± SEM; for Inactivation V0.5 (mV): half-maximal voltage of inactivation; for inactivation speed of P/Q type VDCC (decelerating effect on calcium inactivation): patch-clamp; for Activation k (mV) / Inactivation K (mV): slope factor
T1 construct: expressed in transfected cells; host or cells: HEK cell line
T1 sequence (P27884 whole entry): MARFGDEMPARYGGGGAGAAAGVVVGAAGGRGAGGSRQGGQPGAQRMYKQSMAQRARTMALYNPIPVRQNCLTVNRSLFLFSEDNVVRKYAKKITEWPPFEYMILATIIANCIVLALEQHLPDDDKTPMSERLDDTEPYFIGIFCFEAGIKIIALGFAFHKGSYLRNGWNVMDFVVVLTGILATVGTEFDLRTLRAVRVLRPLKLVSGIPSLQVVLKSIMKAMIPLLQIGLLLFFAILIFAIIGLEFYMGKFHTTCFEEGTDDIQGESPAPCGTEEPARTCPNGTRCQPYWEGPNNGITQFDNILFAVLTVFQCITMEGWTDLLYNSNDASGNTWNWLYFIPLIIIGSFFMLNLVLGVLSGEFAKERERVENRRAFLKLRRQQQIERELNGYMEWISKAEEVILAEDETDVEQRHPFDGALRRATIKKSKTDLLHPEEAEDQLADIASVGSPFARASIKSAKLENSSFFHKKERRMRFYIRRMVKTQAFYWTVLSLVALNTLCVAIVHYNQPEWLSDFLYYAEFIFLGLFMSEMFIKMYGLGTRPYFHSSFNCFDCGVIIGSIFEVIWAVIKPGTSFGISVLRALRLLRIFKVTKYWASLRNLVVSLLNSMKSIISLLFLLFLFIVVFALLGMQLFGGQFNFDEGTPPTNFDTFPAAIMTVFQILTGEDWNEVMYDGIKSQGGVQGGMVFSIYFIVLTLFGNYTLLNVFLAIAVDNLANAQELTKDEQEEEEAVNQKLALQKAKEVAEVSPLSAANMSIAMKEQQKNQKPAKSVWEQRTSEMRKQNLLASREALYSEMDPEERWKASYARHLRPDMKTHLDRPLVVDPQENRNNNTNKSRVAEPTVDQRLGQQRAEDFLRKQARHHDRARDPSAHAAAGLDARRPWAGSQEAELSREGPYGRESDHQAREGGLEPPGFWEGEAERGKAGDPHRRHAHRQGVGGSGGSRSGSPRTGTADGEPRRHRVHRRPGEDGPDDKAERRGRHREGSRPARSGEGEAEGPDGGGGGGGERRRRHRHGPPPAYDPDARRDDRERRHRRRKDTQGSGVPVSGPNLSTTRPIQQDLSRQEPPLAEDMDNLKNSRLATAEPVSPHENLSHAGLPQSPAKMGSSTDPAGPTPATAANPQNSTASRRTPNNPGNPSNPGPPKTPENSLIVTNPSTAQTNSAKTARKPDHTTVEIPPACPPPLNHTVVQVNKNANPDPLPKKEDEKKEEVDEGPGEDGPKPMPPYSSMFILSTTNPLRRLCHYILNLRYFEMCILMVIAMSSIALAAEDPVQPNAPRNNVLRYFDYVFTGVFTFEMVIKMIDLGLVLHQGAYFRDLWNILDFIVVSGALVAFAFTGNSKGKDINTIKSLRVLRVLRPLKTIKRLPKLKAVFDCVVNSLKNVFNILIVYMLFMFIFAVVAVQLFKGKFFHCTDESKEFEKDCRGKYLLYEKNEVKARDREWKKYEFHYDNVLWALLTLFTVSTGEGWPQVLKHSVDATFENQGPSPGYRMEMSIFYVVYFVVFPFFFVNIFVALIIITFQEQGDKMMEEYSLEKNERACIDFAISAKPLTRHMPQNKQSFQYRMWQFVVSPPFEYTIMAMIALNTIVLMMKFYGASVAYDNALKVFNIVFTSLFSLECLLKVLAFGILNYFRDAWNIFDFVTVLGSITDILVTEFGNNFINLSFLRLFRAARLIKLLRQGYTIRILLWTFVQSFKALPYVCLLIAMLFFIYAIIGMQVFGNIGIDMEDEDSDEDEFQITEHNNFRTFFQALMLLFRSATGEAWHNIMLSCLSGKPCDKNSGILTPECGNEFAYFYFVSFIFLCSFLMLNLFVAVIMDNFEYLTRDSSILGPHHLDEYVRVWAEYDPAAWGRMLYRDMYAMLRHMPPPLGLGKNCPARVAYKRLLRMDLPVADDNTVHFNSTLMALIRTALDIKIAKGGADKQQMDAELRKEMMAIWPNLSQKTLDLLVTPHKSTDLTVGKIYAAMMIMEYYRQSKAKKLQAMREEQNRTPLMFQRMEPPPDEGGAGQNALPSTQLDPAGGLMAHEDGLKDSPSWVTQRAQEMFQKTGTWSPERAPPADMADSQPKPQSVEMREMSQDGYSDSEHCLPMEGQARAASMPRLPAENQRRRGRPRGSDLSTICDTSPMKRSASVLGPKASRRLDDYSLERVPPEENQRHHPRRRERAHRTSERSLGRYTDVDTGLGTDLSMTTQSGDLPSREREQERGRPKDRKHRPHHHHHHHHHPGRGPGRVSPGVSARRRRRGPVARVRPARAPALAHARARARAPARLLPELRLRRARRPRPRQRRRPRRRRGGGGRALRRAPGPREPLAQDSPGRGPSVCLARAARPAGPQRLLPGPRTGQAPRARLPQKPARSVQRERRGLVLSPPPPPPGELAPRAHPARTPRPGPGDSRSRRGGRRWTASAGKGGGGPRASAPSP
T1 sequence (P13806 27-1106 partner): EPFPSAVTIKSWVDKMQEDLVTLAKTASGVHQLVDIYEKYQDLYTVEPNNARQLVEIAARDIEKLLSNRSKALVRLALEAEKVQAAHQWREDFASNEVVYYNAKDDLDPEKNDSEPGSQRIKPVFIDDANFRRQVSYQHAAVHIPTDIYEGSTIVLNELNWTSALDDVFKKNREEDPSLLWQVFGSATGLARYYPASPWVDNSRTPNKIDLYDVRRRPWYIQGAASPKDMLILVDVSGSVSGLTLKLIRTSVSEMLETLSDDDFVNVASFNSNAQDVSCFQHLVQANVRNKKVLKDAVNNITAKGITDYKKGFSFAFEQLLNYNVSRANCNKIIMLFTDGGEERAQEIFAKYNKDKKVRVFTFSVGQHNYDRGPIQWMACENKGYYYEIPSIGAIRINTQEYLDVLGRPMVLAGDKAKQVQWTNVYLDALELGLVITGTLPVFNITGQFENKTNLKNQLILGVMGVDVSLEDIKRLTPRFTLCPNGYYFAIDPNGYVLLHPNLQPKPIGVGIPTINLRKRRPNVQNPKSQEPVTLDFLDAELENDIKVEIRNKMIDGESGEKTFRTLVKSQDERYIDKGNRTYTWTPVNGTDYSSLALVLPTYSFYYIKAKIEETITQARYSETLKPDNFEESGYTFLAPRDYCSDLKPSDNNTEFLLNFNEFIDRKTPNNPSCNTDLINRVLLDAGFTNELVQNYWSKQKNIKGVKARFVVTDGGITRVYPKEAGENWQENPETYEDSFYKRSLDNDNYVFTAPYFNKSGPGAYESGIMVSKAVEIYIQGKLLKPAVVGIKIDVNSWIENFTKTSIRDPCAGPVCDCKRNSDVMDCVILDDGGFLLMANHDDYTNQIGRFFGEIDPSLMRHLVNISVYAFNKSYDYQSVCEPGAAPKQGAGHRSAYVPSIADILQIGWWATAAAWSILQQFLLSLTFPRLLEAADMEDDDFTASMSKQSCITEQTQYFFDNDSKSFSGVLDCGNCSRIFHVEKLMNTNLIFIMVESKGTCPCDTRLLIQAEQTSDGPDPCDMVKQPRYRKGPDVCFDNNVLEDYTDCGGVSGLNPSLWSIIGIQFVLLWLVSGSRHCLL
T1 sequence (P19517 whole entry partner): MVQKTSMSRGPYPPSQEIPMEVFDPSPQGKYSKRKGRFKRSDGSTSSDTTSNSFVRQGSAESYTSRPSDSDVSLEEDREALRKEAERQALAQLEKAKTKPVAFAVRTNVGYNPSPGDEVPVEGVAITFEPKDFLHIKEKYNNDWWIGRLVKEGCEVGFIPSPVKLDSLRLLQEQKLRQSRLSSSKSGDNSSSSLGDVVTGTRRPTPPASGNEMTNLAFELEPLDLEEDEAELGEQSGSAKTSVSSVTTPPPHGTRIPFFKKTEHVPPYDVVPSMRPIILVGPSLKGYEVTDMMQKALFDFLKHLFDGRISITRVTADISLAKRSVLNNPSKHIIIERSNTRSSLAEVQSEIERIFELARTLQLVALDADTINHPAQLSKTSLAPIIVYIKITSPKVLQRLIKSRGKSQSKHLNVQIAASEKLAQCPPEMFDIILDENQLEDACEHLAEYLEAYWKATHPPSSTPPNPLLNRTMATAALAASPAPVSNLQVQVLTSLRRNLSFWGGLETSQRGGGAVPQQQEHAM

[8] = system: mouse hippocampal primary culture neurons; conditions: 24, 36 and 48 hours after transfection; mutants compared to wild-type EFHC1
Method: Mouse hippocampal neurons primary culture. Hippocampal neurons were isolated from embryonic day 16 mice and plated at 1-2×10^5 cells per well in 24 well plate containing glass coverslips coated with poly-1-lysine and grown in serum-free NEUROBASAL™ media supplemented with B27, 0.5 mM L-glutamine (Invitrogen).
Transfection and immunostaining of mouse hippocampal neurons. […] Cultures were fixed with 4% paraformaldehyde in PBS 16 and 48 hours after transfection, permeabilized with 0.3% Triton X-100, blocked in 3% normal goat serum in PBS, and treated with mouse monoclonal anti-MAP-2 antibody (1:500; Sigma) and Alexa fluor 594 goat anti-mouse IgG antibody (1:1000; Molecular Probes).
TUNEL assay. […] Forty-eight hours after transfection, neuronal apoptosis was detected using DeadEndTM Fluorometric TUNEL System (Promega). Nuclei were visualized with Hoescht 33342 (Molecular Probes). These cells were also stained with anti-Myc antibody (1:200; Cell Signaling) and Alexa fluor 594 goat anti-rabbit IgG antibody (1:1000). All experiments were carried out in duplicate wells and at least repeated three times. Neuron cells were observed on a confocal microscope (OLYMPUS FLUOVIEW) following 48 hours post transfection.
Cell death analyses with EFHC1 mutants. […] Surviving cell numbers were scored by counting GFP fluorescent-positive cells that attached to dishes. At each counting, detached cells (dead cells) were carefully removed by changing culture medium. Morphologies of cells (cell shape, length and number of neurites, shrinkage, etc.) were not considered for the counting. Surviving cell numbers were scored at 24, 36, and 48 hours after transfection. Analyses were repeated twice by using two independently prepared expression construct DNAs. In total, neurons in seven wells of 24 well plates were counted for each transfection and time point. Experiments were performed in a blinded fashion.

[9] = target: T2, R-type VDCC (Cav2.3) (Oryctolagus cuniculus, UniProt Q02343); test: Patch-clamp analyses of BHK cells stably expressing Cav2.3 transfected with EFHC1 constructs; type: cell-based; conditions: whole cell patch-clamp, 24-48 hr after transfection
T2 construct: expressed in transfected cells; host or cells: BHK (BII-104-2) cells
Method: Electrophysiological analysis. A baby hamster kidney (BHK) cell line BHK (BII-104-2) stably transfected with the ociE (BII), α2/δ and β1a subunits, were cultured in DMEM medium containing 10% fetal bovine serum (FBS), 30 U/mL penicillin and 30 μg/mL streptomycin. To transiently express wild type or mutant EFHC1, BHK (BII-104-2) cells were transfected with the pEGFP-C2 plasmids (Clonetech) containing EGFP fused with cDNA for EFHC1 or its mutants using SuperFect Transfection Reagent (QIAGEN). For control experiments, EGFP was transiently expressed by transfecting BHK (BII-104-2) with the same amount of pEGFP without the EFHC1 inserts. Cells were trypsinized, diluted with the DMEM medium, and plated onto glass coverslips 18 hrs after transfection. Ca^2+ currents were recorded 24-48 hr after transfection from GFP-positive cells. Currents from BHK (BII-104-2) cells were recorded at room temperature (22-25° C.) using patch-clamp techniques of whole cell mode with an EPC-9 amplifier (HEKA, Germany). Patch pipettes were made from borosilicate glass capillaries (1.5 mm outer diameter and 0.87 mm inner diameter; Hilgenberg) by using a model P-97 Flaming-Brown micropipette puller (Sutter Instrument Co., CA). Pipette resistance ranged from 2 to 3 MΩ when filled with the pipette solutions described below. The series resistance was electronically compensated to >70% and both the leakage and the remaining capacitance were subtracted by −P/6 method. Currents were sampled at 100 kHz in activation kinetics, otherwise sampled at 50 kHz and filtered at 10 kHz. Calcium currents were recorded in an external solution that contained (in mM): 3 CaCl2, 148 tetraethylammonium chloride (TEA-C1), 10 glucose, and 10 HEPES, pH adjusted to 7.4 with Tris-OH. The pipette solution contained (in mM): 85 Cs-aspartate, 40 CsCl, 4 MgCl2, 5 EGTA, 2 ATP2Na, 5 HEPES, and 8 creatine-phosphate, pH adjusted to 7.4 with CsOH. To determine voltage-dependence of activation, amplitude of tail currents at −50 mV after 5 ms test pulse (−40 to 90 mV) was normalized to the maximal tail current amplitude. […]

Molecule	effect on JME seizures [1]	Seizure protecting plasma concentrations in humans [3]	Activation V0.5 (mV) [7]	Inactivation V0.5 (mV) [7]	Activation k (mV) [7]	Inactivation K (mV) [7]	cell-death effect (GFP-positive surviving cell numbers) [8]	also measured
CC1(C)O[C@@H]2[C@@H](CO[C@@]3(COS(N)(=O)=O)OC(C)(C)O[C@@H]23)O1 [Topiramate]	seizure-suppressing; also recorded: suppress JME seizures; also recorded: seizure suppressing	5 to 10 µg/mL	–	–	–	–	–	peak of L-type HVDCC [2]: decreased
CC[C@@H](C(N)=O)N1CCCC1=O [Levetiracetam]	seizure-suppressing; also recorded: suppress JME seizures; also recorded: seizure suppressing	5 to 45 µg/mL	–	–	–	–	–	T type VDCC [4]: no effects; high voltage activated calcium currents [5]: depresses
CCC1(c2ccccc2)C(=O)NC(=O)NC1=O [Phenobarbital]	–	10 to 40 µg/mL	–	–	–	–	–	–
CCCC(CCC)C(=O)O [Valproate]	–	40 to 150 µg/mL	–	–	–	–	–	–
O=C1NC(=O)C(c2ccccc2)(c2ccccc2)N1 [Phenytoin]	can make seizures worse; also recorded: have no effects on or aggravate JME seizures	10 to 20 µg/mL	–	–	–	–	–	absences in JME [1]: make absence appear for the first time
SNX-482	–	–	–	–	–	–	–	apoptosis induced by EFHC1 overexpression ([6]; mouse hippocampal primary culture neurons): specifically suppressed; survival rates of EFHC1-positive neurons ([6]; surviving cells 48 hours after transfection, antagonist added 3 hrs post transfection): specifically increased
NC(=O)N1c2ccccc2C=Cc2ccccc21 [Carbamazepine]	can make seizures worse; also recorded: have no effects on or aggravate JME seizures	4 to 10 µg/mL	–	–	–	–	–	absences in JME [1]: make absence appear for the first time; effect on JME seizures ([1]; listed as carbamezapine): can make seizures worse
CCC1(C)CC(=O)NC1=O (centres unmarked) [Ethosuximide]	no effects; also recorded: have no effects on or aggravate JME seizures	40 to 100 µg/mL	–	–	–	–	–	T type VDCC ([4]; thalamic neurons): reduce; T type VDCC ([4]; thalamic neurons, listed as ethozuximide): reduces
CN1C(=O)OC(C)(C)C1=O [trimethadione]	no effects in JME	–	–	–	–	–	–	T type VDCC ([4]; thalamic neurons): reduce
B1	–	–	24.1 ± 1.4 mV	−9.4 ± 1.4 mV	9.08 ± 0.71 mV	6.44 ± 0.33 mV	significantly reversed	inactivation speed of P/Q type VDCC (decelerating effect on calcium inactivation) [7]: did not significantly affect
B2	–	–	17.7 ± 1.9 mV	−17.0 ± 2.5 mV	7.08 ± 0.81 mV	7.00 ± 0.27 mV	significantly reversed	inactivation speed of P/Q type VDCC (decelerating effect on calcium inactivation) [7]: abolished the decelerating effect
B3	–	–	19.7 ± 2.0 mV	−10.9 ± 1.8 mV	7.60 ± 0.51 mV	6.08 ± 0.22 mV	significantly reversed	Ca2+ current density of P/Q-type VDCC (Cav2.1) ([7]; cells co-transfected with P/Q-type VDCC and EFHC1 constructs): prominently increased; sustained component of calcium currents ([7]; compared with vector-transfected control P/Q-type-expressing cells): reduced
B4	–	–	21.0 ± 3.4 mV	−13.7 ± 2.4 mV	9.25 ± 0.43 mV	6.53 ± 0.41 mV	significantly reversed	R-type Ca2+ current generated by Cav2.3 [9]: significantly suppressed; inactivation speed of P/Q type VDCC (decelerating effect on calcium inactivation) [7]: abolished the decelerating effect
